The test deals with myristylated PKA-Cα K7C (mouse, UniProt P05132 1-351, K7C, N-terminal myristylation). The experiment in a line: SPR. In general terms: In SPR one partner is held on a chip, and binding of the other changes the refractive index at the surface.

B1: phosphorylated SMO IFR→AAA (I573A, F577A, R580A; FLAG-tagged mouse SMO 64-674) in nanodiscs (receptor)
chain: LLSHCGRAAHCEPLRYNVCLGSALPYGATTTLLAGDSDSQEEAHGKLVLWSGLRNAPRCWAVIQPLLCAVYMPKCENDRVELPSRTLCQATRGPCAIVERERGWPDFLRCTPDHFPEGCPNEVQNIKFNSSGQCEAPLVRTDNPKSWYEDVEGCGIQCQNPLFTEAEHQDMHSYIAAFGAVTGLCTLFTLATFVADWRNSNRYPAVILFYVNACFFVGSIGWLAQFMDGARREIVCRADGTMRFGEPTSSETLSCVIIFVIVYYALMAGVVWFVVLTYAWHTSFKALGTTYQPLSGKTSYFHLLTWSLPFVLTVAILAVAQVDGDSVSGICFVGYKNYRYRAGFVLAPIGLVLIVGGYFLIRGVMTLFSIKSNHPGLLSEKAASKINETMLRLGIFGFLAFGFVLITFSCHFYDFFNQAEWERSFRDYVLCQANVTIGLPTKKPIPDCEIKNRPSLLVEKINLFAMFGTGIAMSTWVWTKATLLIWRRTWCRLTGHSDDEPKRIKKSKMAAKAASKARELLQNPGQELSFSMHTVSHDGPVAGLAFDLNEPSADVSSAWAQHVTKMVARRGAILPQDVSVTPVATPVPPEEQANMWLVEAEISPELEKRLG
modifications: GRK2/3-phosphorylated; mapped sites pS560, pS594, pT597, pS599, pS615, pS642, pT644, pT648
In turn, B1 yielded a Kd of 222 nM.

As usually defined, the Kd is the concentration at which binding is half-saturated. A higher Kd goes with a looser complex.

The record behind these values is paper PMC11565934 (bioRxiv, 2024).
